Measured values taken from patent publication US20200325187A1 (Genentech, published 2020).
Where two headings read alike, the source gives them in different places. No end group written: not given here.

Columns and labels:
hVEGF-A (8-109) [1] = target: T1, hVEGF-A (8-109) (human, UniProt P15692 214-315); experiment: spot phage ELISA
T1 sequence (looked up): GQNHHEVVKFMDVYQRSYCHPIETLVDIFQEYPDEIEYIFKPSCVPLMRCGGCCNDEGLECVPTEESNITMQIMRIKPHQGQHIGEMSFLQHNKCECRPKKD
Description: (§1) After four rounds of binding selection, individual phage clones were picked and inoculated into 450 μl 2YT media containing 50 µg/ml Carbenecillin and M13-KO7 helper phage in 96-well blocks, which were grown at 37° C. overnight. […] The plates were washed and bound phage was detected with anti-M13-HRP followed by TMB substrate. In these assays, phage binding to BSA alone was tested in parallel to assess background binding. […] Positive clones were subjected to DNA sequence analysis.

hVEGF-A [2] = target: T2, hVEGF-A (human, UniProt P15692-4 27-191, limits assumed); experiment: phage competition ELISA, soluble CKP
T2 construct: also called human VEGF-A; WT

hVEGF-A [3] = target: T2, hVEGF-A; experiment: cell-based or functional assay
hVEGF-A (8-109) [4] = target: T1, hVEGF-A (8-109); experiment: spot phage ELISA; remark: listed apart in the source
Description: as §1

hVEGF-A [5] = target: T2, hVEGF-A; experiment: phage competition ELISA, soluble CKP; remark: listed apart in the source
hVEGF-A [6] = target: T2, hVEGF-A; experiment: SPR
Description: Depending on the format of the assay either a streptavidin sensor (SA) or a dextran-coated (CM5) sensor was utilized as described below.
Reaction was then quenched by addition of 10 molar excess of Glycine pH 8.0 and the sample was buffer exchanged into PBS using an Amicon 0.5 mL 3000 MWCO ultra-centrifugal filters (EMD Millipore). The biotinylation state of the protein was verified by LC-MS analysis. Biotinylated VEGF-A was then captured on the surface until a resonance unit (RU) signal of about ˜400. For immobilization of VEGF-A on CM5 sensor, the surface was first activated with a mixture of N-ethyl-N′-(3-dimethylaminopropyl)carbodiimide hydrochloride and N-hydroxysuccinimide (EDC/NHS) according to the supplier instructions. VEGF-A was then diluted into coupling buffer (0.1 M Acetate Buffer, pH 5.0) and injected until the signal reached about ˜400 RU followed by a wash with 1 M ethanolamine pH 8.0 to quench remaining activated sites.

hVEGF-A [7] = target: T2, hVEGF-A; experiment: cell-based or functional assay; remark: listed apart in the source
hVEGF-A [8] = target: T2, hVEGF-A; experiment: KDR-VEGF competition ELISA
hVEGF-A (8-109) [9] = target: T1, hVEGF-A (8-109); experiment: phage competition ELISA (clone on phage; the concentration varied on the axis is that of hVEGF (8-109))
hVEGF-A (8-109) [10] = target: T1, hVEGF-A (8-109); experiment: as above; remark: listed apart in the source
hVEGF-A (8-109) [11] = target: T1, hVEGF-A (8-109); experiment: spot phage ELISA; remark: listed apart in the source
Description: as §1

B1: VEGF_CKP9.3 (designed binder)
chain: GCQISQPFWGCKQDSDCLAGCVCHFYNSCG
ELISA (hVEGF-A (8-109) [1]): 1.6
S/N vs BSA (hVEGF-A (8-109) [1]): 24.5
IC50 (hVEGF-A [2]): 1500 nM

B2: VEGF_CKP9.63.12.12 (designed binder)
chain: GCDVMQPYWGCGPDIDCLSNCICHWYNSCG
Cellular IC50 (hVEGF-A [3]): 0.56 nM
FOLD [..] [..] TO VARIANT 9.54.90 (hVEGF-A [3]): 2.41 fold

B3: VEGF_CKP9.54.90.62.F8Y (designed binder)
chain: GCNIMLPYWGCGRDFECFYECICQYYQSCG
Cellular IC50 (hVEGF-A [3]): 1.14 nM
FOLD [..] [..] TO VARIANT 9.54.90 (hVEGF-A [3]): 1.18 fold

B4: VEGF_CKP11 (designed binder)
chain: GCRTPWEPHDITCKQDSDCLAGCVCGPNGFCG
ELISA (hVEGF-A (8-109) [4]): 4.1
S/N vs BSA (hVEGF-A (8-109) [4]): 57.5
IC50 (hVEGF-A [5]): 80 µM

B5: VEGF_CKP12 (designed binder)
chain: GCTTPWPPHEIMCKQDSDCLAGCVCGPNGFCG
ELISA (hVEGF-A (8-109) [4]): 3.5
S/N vs BSA (hVEGF-A (8-109) [4]): 55.2
IC50 (hVEGF-A [5]): 60 µM

B6: VEGF_CKP13 (designed binder)
chain: GCVTPWKPHWINCKQDSDCLAGCVCGPNGFCG
ELISA (hVEGF-A (8-109) [4]): 3.5
S/N vs BSA (hVEGF-A (8-109) [4]): 56.3
IC50 (hVEGF-A [5]): 80 µM

B7: VEGF_CKP9.54.1.F8Y (designed binder)
chain: GCNIMLPYWGCGQSFECLAGCVCQYYQSCG
Kd (hVEGF-A [6]): 0.78 nM

B8: VEGF_CKP9.54.2 (designed binder)
chain: GCNIMLPFWGCGLDYDCLAGCVCQYYQSCG
ELISA (hVEGF-A (8-109) [4]): 0.1
S/N vs BSA (hVEGF-A (8-109) [4]): 26
Cellular IC50 (hVEGF-A [7]): 4.3 nM
IC50 (hVEGF-A [8]): 0.2 nM

B9: VEGF_CKP9.54.59 (designed binder)
chain: GCNIMLPFWGCGPDLQCLAGCVCQYYQSCG
ELISA (hVEGF-A (8-109) [4]): 2.3
S/N vs BSA (hVEGF-A (8-109) [4]): 35.4
Cellular IC50 (hVEGF-A [7]): 3.06 nM
IC50 (hVEGF-A [8]): 0.5 nM

B10: VEGF_CKP9.54.90.13.F8Y (designed binder)
chain: GCNIMLPYWGCGRDFECMNQCICQYYQSCG
Cellular IC50 (hVEGF-A [3]): 2.02 nM
FOLD [..] [..] TO VARIANT 9.54.90 (hVEGF-A [3]): 0.67 fold

B11: VEGF_CKP9.54.90.25 (designed binder)
chain: GCNIMLPFWGCGRDFECMQTCICQYYQSCG
Cellular IC50 (hVEGF-A [3]): 1.26 nM
FOLD [..] [..] TO VARIANT 9.54.90 (hVEGF-A [3]): 1.07 fold

B12: VEGF_CKP10 (designed binder)
chain: GCRDLDVKWDCKQDSDCLAGCFCQYYSSCG
ELISA (hVEGF-A (8-109) [4]): 3.2
S/N vs BSA (hVEGF-A (8-109) [4]): 43.7
IC50 (hVEGF-A [5]): 1 µM

B13: 9.54.90.F7Y.A2G (designed binder)
chain: CNIMLPYWGCGRDFECLAGCVCQYYQSC
Cellular IC50 (hVEGF-A [3]): 3.01 nM
FOLD [..] [..] TO VARIANT 9.54.90 (hVEGF-A [3]): 0.44 fold

B14: 9.63.44-1 (designed binder)
chain: GCDVMQPYWGCEMDFDCLAGCICHWYNSCGFS
IC50 (read off the curve) (hVEGF-A (8-109) [9]): ~0.04 nM

B15: 9.63.44-10 (designed binder)
chain: GCDVMQPYWGCEMDFDCLVGCVCHWYNSCGDE
IC50 (read off the curve) (hVEGF-A (8-109) [10]): ~5 nM

B16: 9.63.44-13 (designed binder)
chain: GCDVMQPYWGCEMDFDCLAGCVCHWYNSCGQF
IC50 (read off the curve) (hVEGF-A (8-109) [10]): ~0.3 nM

B17: 9.63.44-14 (SEQ ID NO: 532) (designed binder)
chain: GCDVMQPYWGCEMDFDCLAGCICHWYNSCGWK
IC50 (read off the curve) (hVEGF-A (8-109) [10]): ~0.07 nM

B18: 9.63.44-6 (designed binder)
chain: GCDVMQPYWGCEMDFDCLAGCVCHWYNSCGSM
binding result (hVEGF-A (8-109) [9]): binds

B19: 9.63.44-2 (designed binder)
chain: GCDVMQPYWGCEMDFDCLAGCICHWYNSCGQV
IC50 (read off the curve) (hVEGF-A (8-109) [9]): ~0.03 nM

B20: 9.63.44-12 (designed binder)
chain: GCDVMQPYWGCEMDFDCLAGCVCHWYNSCGPL
IC50 (read off the curve) (hVEGF-A (8-109) [10]): ~0.1 nM

B21: 9.63.44-11 (designed binder)
chain: GCDVMQPYWGCEMDFDCLAGCVCHWYNSCGDL
binding result (hVEGF-A (8-109) [10]): binds

B22: 9.63.44-8 (designed binder)
chain: GCDVMQPYWGCEMDFDCLAGCICHWYNSCGTS
IC50 (read off the curve) (hVEGF-A (8-109) [10]): ~0.02 nM

B23: 9.63.44-7 (designed binder)
chain: GCDVMQPYWGCEMDFDCLAGCVCHWYNSCGGI
IC50 (read off the curve) (hVEGF-A (8-109) [9]): ~0.03 nM

B24: 9.63.44-9 (designed binder)
chain: GCDVMQPYWGCEMDFDCLAGCICHWYNSCGLQ
IC50 (read off the curve) (hVEGF-A (8-109) [10]): ~0.03 nM

B25: 9.63.44-5 (designed binder)
chain: GCDVMQPYWGCEMDFDCLAGCICHWYNSCGPT
binding result (hVEGF-A (8-109) [9]): binds

B26: 9.63.44-4 (designed binder)
chain: GCDVMQPYWGCEMDFDCLAGCICHWYNSCGSR
IC50 (read off the curve) (hVEGF-A (8-109) [9]): ~0.04 nM

B27: 9.63.44-3 (designed binder)
chain: GCDVMQPYWGCEMDFDCLAGCICHWYNSCGYA
IC50 (read off the curve) (hVEGF-A (8-109) [9]): ~0.03 nM

B28: VEGF_CKP9.59 (designed binder)
chain: GCDPMQPFWGCKQDSDCLAGCVCRWYQSCG
IC50 (hVEGF-A [2]): 5820 nM

B29: VEGF_CKP9.54.90.44 (designed binder)
chain: GCNIMLPFWGCGRDFECFINCICQYYQSCG
Cellular IC50 (hVEGF-A [3]): 1.16 nM
FOLD [..] [..] TO VARIANT 9.54.90 (hVEGF-A [3]): 1.16 fold

B30: VEGF_CKP9.4 (designed binder)
chain: GCDRMQPLWGCKQDSDCLAGCVCLWYKSCG
IC50 (hVEGF-A [2]): 1950 nM

B31: VEGF_CKP6 (designed binder)
chain: GCPTTRFKQYCKQDSDCLAGCVCGPNGFCG
ELISA (hVEGF-A (8-109) [4]): 3.5
S/N vs BSA (hVEGF-A (8-109) [4]): 51.9
IC50 (hVEGF-A [5]): 3 µM

B32: VEGF_CKP9.63.1 (designed binder)
chain: GCDVMQPYWGCGENFLCLAGCVCHWYNSCG
notes: also called L2.9.63.1
ELISA (hVEGF-A (8-109) [4]): 2
S/N vs BSA (hVEGF-A (8-109) [4]): 25.2
Cellular IC50 (hVEGF-A [7]): 0.49 nM
IC50 (hVEGF-A [8]): 0.4 nM

B33: VEGF_CKP9.63.69 (designed binder)
chain: GCDVMQPYWGCGESLSCLAGCVCHWYNSCG
notes: also called L2.9.63.69
ELISA (hVEGF-A (8-109) [4]): 2.9
S/N vs BSA (hVEGF-A (8-109) [4]): 23.7
Cellular IC50 (hVEGF-A [7]): 26.4 nM
IC50 (hVEGF-A [8]): 2.1 nM

B34: VEGF_CKP9.54.90-Alkyn (designed binder)
chain: GCNIMLPFWGCGRDFECLAGCVCQYYQSCG
modifications: cysteine pairing not given here; also: -Alkyn: alkyne modification, position not given here
Kd (hVEGF-A [6]): 0.49 nM

B35: VEGF_CKP7 (designed binder)
chain: GCQDPTFNWALYCKQDSDCLAGCVCQMYQSCG
ELISA (hVEGF-A (8-109) [4]): 3.4
S/N vs BSA (hVEGF-A (8-109) [4]): 54.5
ELISA (hVEGF-A (8-109) [11]): 0.1
S/N vs BSA (hVEGF-A (8-109) [11]): 1.3
IC50 (hVEGF-A [5]): 12 µM

B36: VEGF_CKP9.20 (designed binder)
chain: GCNLMLPFWGCKQDSDCLAGCVCRWYHSCG
IC50 (hVEGF-A [2]): 1340 nM

B37: VEGF_CKP9.63.44 (designed binder)
chain: GCDVMQPYWGCEMDFDCLAGCVCHWYNSCG
notes: also called L2.9.63.44
ELISA (hVEGF-A (8-109) [4]): 1.7
S/N vs BSA (hVEGF-A (8-109) [4]): 19.5
Cellular IC50 (hVEGF-A [7]): 2.05 nM
IC50 (hVEGF-A [8]): 0.2 nM

B38: VEGF_CKP9.63.27 (designed binder)
chain: GCDVMQPYWGCGRDMDCLAGCVCHWYNSCG
notes: also called L2.9.63.27
ELISA (hVEGF-A (8-109) [4]): 2.1
S/N vs BSA (hVEGF-A (8-109) [4]): 26
Cellular IC50 (hVEGF-A [7]): 5.28 nM
IC50 (hVEGF-A [8]): 0.3 nM

B39: VEGF_CKP9.96 (designed binder)
chain: GCKLFEPLWGCKQDSDCLAGCVCRWYESCG
ELISA (hVEGF-A (8-109) [1]): 1.2
S/N vs BSA (hVEGF-A (8-109) [1]): 18.4
IC50 (hVEGF-A [2]): 49000 nM
